What was measured:
human CD8A-Fc (in house) = target: T1, human CD8A-Fc (in house) (human, UniProt P01732 22-182, limits assumed); assay: SPR (ProteOn), captured hCD8A-Fc
T1 construct: captured by goat anti-human Fc on the ProteOn chip; also called hCD8A-Fc; recombinant human CD8 alpha; not shown: linker/tag and Fc of human IgG1

[1] = target: T2, cynomolgus monkey CD8 alpha on primary cynomolgus CD8+ T cells (cynomolgus monkey, UniProt P01732 23-235 (human entry)); assay: flow cytometry, cyno CD8+ T cells
T2 construct: also called Cyno CD8alpha; cyno CD8A
Experimental: (§1) Binding of the 190 ELISA hits to human and cynomologous monkey primary CD8 T cells was assessed by flow cytometry. The FN3 domain molecules were diluted to 2 μM and 0.2 μM in PBS and incubated with human or cynomologous monkey CD8+ T cells in 96-well format. After 1 hour at 4 C, the cells were washed once with PBS and then resuspended with an anti-FN3 domain antibody (PAB25) solution. Following this incubation, the cells were washed twice with PBS and a PE conjugated secondary antibody and a viability dye were added. Finally, cells were washed and resuspended in PBS for flow cytometric analysis using a BD Canto Instrument. Cells were gating on live cells and median fluorescence intensity of the bound Centyrins (PE channel) was calculated using Cytobank software.

[2] = target: T3, human CD8 alpha (CD8A) on primary human CD8+ T cells (human, UniProt P01732 22-235); assay: flow cytometry, human CD8+ T cells
T3 construct: whole, on cells; also called hCD8A
Experimental: as §1

T1 sequence (P01732 22-182 limits assumed): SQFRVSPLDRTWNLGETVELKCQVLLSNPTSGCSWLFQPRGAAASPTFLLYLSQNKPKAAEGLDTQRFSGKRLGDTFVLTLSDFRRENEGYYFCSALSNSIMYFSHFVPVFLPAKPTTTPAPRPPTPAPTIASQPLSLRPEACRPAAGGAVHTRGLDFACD
T2 sequence (P01732 other isoform, or with tags, fused parts or gaps limits assumed): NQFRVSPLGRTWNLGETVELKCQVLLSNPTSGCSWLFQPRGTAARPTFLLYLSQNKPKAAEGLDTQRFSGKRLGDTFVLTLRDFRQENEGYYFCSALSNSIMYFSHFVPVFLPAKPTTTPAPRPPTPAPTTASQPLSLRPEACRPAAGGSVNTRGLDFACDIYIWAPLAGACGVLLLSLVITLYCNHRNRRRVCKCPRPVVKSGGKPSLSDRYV
T3 sequence (P01732 22-235): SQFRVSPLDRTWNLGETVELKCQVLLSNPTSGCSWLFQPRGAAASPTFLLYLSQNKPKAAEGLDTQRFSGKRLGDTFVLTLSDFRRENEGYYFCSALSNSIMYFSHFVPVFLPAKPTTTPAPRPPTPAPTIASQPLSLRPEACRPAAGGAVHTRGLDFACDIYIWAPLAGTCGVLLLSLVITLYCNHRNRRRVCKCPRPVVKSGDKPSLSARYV

B1: P283DR9P1364_F2 (designed binder)
chain: LPAPKNLVVSRVTEDSARLSWTAPDAAFDSFWIAYPEWPVPGEAIVLTVPGSERSYDLTGLKPGTEYFVIIQGVKGGFGSFPLSAIFTT
notes: FN3 domain
With B1 the koff (human CD8A-Fc (in house)) was 0.000161 s⁻¹, the “Cyno T-cell Binding 0.2 uM (MFI)” value [1] was 16900 MFI and the “Cyno T-cell Binding 2 uM (MFI)” value [1] was 91500 MFI. For the same binder, the “Human T-cell Binding 0.2 uM (MFI)” value [2] was 6250 MFI and the “Human T-cell Binding 2 uM (MFI)” value [2] was 39200 MFI.

B2: P283FR9P1366_C2 (designed binder)
chain: LPAPKNLVVSRVTEDSARLSWTAPDAAFDSFKISYPEWPPEGEAIVLTVPGSERSYDLTGLKPGTEYAVFIWCVKGGEHSWPLSAIFTT
notes: FN3 domain
With B2 the koff (human CD8A-Fc (in house)) was 0.000491 s⁻¹, the “Cyno T-cell Binding 0.2 uM (MFI)” value [1] was 19300 MFI and the “Cyno T-cell Binding 2 uM (MFI)” value [1] was 89200 MFI. The “Human T-cell Binding 0.2 uM (MFI)” value [2] was 4320 MFI and the “Human T-cell Binding 2 uM (MFI)” value [2] was 41000 MFI.

B3: P283FR9P1366_D6 (designed binder)
chain: LPAPKNLVVSRVTEDSARLSWTAPDAAFDSFNIFYPELVFPGEAIVLTVPGSERSYDLTGLKPGTEYWVNISGVKGGEHSWPLSAIFTT
notes: FN3 domain
B3 was tested, and the koff (human CD8A-Fc (in house)) was 0.000509 s⁻¹, the “Cyno T-cell Binding 0.2 uM (MFI)” value [1] was 10400 MFI and the “Cyno T-cell Binding 2 uM (MFI)” value [1] was 79600 MFI. The “Human T-cell Binding 0.2 uM (MFI)” value [2] was 4550 MFI and the “Human T-cell Binding 2 uM (MFI)” value [2] was 32900 MFI.

B4: P283DR9P1364_H6 (designed binder)
chain: LPAPKNLVVSRVTEDSARLSWTAPDAAFDSFIIAYPETPVRGEAIVLTVPGSERSYDLTGLKPGTEYFVIIIGVKGGQESFPLSAIFTT
notes: FN3 domain
In the case of B4, the koff (human CD8A-Fc (in house)) is reported as 0.0023 s⁻¹, the “Cyno T-cell Binding 0.2 uM (MFI)” value [1] is reported as 418 MFI and the “Cyno T-cell Binding 2 uM (MFI)” value [1] is reported as 6000 MFI. For the same binder, the “Human T-cell Binding 0.2 uM (MFI)” value [2] was 268 MFI and the “Human T-cell Binding 2 uM (MFI)” value [2] was 2620 MFI.

B5: P283FR9P1366_D7 (designed binder)
chain: LPAPKNLVVSRVTEDSARLSWTAPDAAFDSFSIAYPELPVKGEAIVLTVPGSERSYDLTGLKPGTEYFVVIWGVKGGTYSGPLSAIFTT
notes: FN3 domain
With B5 the koff (human CD8A-Fc (in house)) was 0.000354 s⁻¹, the “Cyno T-cell Binding 0.2 uM (MFI)” value [1] was 2580 MFI and the “Cyno T-cell Binding 2 uM (MFI)” value [1] was 41400 MFI. For the same binder, the “Human T-cell Binding 0.2 uM (MFI)” value [2] was 566 MFI and the “Human T-cell Binding 2 uM (MFI)” value [2] was 7520 MFI.

B6: P283FR9P1366_A5 (designed binder)
chain: LPAPKNLVVSRVTEDSARLSWTAPDAAFDSFWIAYPEWPTRGEAIVLTVPGSERSYDLTGLKPGTEYFVVIYGVKGGSPSPPLSAIFTT
notes: FN3 domain
B6 was tested, and the koff (human CD8A-Fc (in house)) was 0.000585 s⁻¹, the “Cyno T-cell Binding 0.2 uM (MFI)” value [1] was 10900 MFI and the “Cyno T-cell Binding 2 uM (MFI)” value [1] was 67800 MFI. For the same binder, the “Human T-cell Binding 0.2 uM (MFI)” value [2] was 3600 MFI and the “Human T-cell Binding 2 uM (MFI)” value [2] was 27600 MFI.

B7: P283FR9P1366_A9 (designed binder)
chain: LPAPKNLVVSRVTEDSARLSWTAPDAAFDSFNIAYGEYPGPGEAIVLTVPGSERSYDLTGLKPGTEYWVPIWGVKGGELSEPLSAIFTT
notes: FN3 domain
With B7 the koff (human CD8A-Fc (in house)) was 0.00394 s⁻¹, the “Cyno T-cell Binding 0.2 uM (MFI)” value [1] was 580 MFI and the “Cyno T-cell Binding 2 uM (MFI)” value [1] was 8810 MFI. The “Human T-cell Binding 0.2 uM (MFI)” value [2] was 252 MFI and the “Human T-cell Binding 2 uM (MFI)” value [2] was 1720 MFI.

B8: P283FR9P1366_A1 (designed binder)
chain: LPAPKNLVVSRVTEDSARLSWTAPDAAFDSFWITYPEWPVPGEAIVLTVPGSERSYDLTGLKPGTEYAVFIWGVKGGDASEPLSAIFTT
notes: FN3 domain
In the case of B8, the koff (human CD8A-Fc (in house)) is reported as 0.00226 s⁻¹, the “Cyno T-cell Binding 0.2 uM (MFI)” value [1] is reported as 1650 MFI and the “Cyno T-cell Binding 2 uM (MFI)” value [1] is reported as 39400 MFI. For the same binder, the “Human T-cell Binding 0.2 uM (MFI)” value [2] was 516 MFI and the “Human T-cell Binding 2 uM (MFI)” value [2] was 8780 MFI.

B9: P283FR9P1366_C4 (designed binder)
chain: LPAPKNLVVSRVTEDSARLSWTAPDAAFDSFNIAYPEWPVRGEAIVLTVPGSERSYDLTGLKPGTEYWVIIIGVKGGEDSWPLSAIFTT
notes: FN3 domain
B9 was tested, and the koff (human CD8A-Fc (in house)) was 0.000536 s⁻¹, the “Cyno T-cell Binding 0.2 uM (MFI)” value [1] was 10200 MFI and the “Cyno T-cell Binding 2 uM (MFI)” value [1] was 63400 MFI. For the same binder, the “Human T-cell Binding 0.2 uM (MFI)” value [2] was 3750 MFI and the “Human T-cell Binding 2 uM (MFI)” value [2] was 33800 MFI.

B10: P283DR9P1364_H11 (designed binder)
chain: LPAPKNLVVSRVTEDSARLSWTAPDAAFDSFDIAYPELPLGGEAIVLTVPGSERSYDLTGLKPGTEYFVIIWGVKGGDRSEPLSAIFTT
notes: FN3 domain
With B10 the koff (human CD8A-Fc (in house)) was 0.000964 s⁻¹, the “Cyno T-cell Binding 0.2 uM (MFI)” value [1] was 9460 MFI and the “Cyno T-cell Binding 2 uM (MFI)” value [1] was 60600 MFI. The “Human T-cell Binding 0.2 uM (MFI)” value [2] was 834 MFI and the “Human T-cell Binding 2 uM (MFI)” value [2] was 11500 MFI.

B11: P283FR9P1366_C3 (designed binder)
chain: LPAPKNLVVSRVTEDSARLSWTAPDAAFDSFKIAYPEWPDGGEAIVLTVPGSERSYDLTGLKPGTEYFVIIYGVKGGILSPPLSAIFTT
notes: FN3 domain
B11 was tested, and the koff (human CD8A-Fc (in house)) was 0.00207 s⁻¹, the “Cyno T-cell Binding 0.2 uM (MFI)” value [1] was 1040 MFI and the “Cyno T-cell Binding 2 uM (MFI)” value [1] was 4630 MFI. For the same binder, the “Human T-cell Binding 0.2 uM (MFI)” value [2] was 407 MFI and the “Human T-cell Binding 2 uM (MFI)” value [2] was 1820 MFI.

B12: P283DR9P1364_H1 (designed binder)
chain: LPAPKNLVVSRVTEDSARLSWTAPDAAFDSFQISYPEWPVHGEAIVLTVPGSERSYDLTGLKPGTEYWVIIWGVKGGRQSWPLSAIFTT
notes: FN3 domain
B12 was tested, and the koff (human CD8A-Fc (in house)) was 0.000613 s⁻¹, the “Cyno T-cell Binding 0.2 uM (MFI)” value [1] was 10600 MFI and the “Cyno T-cell Binding 2 uM (MFI)” value [1] was 54000 MFI. The “Human T-cell Binding 0.2 uM (MFI)” value [2] was 3030 MFI and the “Human T-cell Binding 2 uM (MFI)” value [2] was 29200 MFI.

B13: P283DR9P1364_G9 (designed binder)
chain: LPAPKNLVVSRVTEDSARLSWTAPDAAFDSFGIWYPEWPVGGEAIVLTVPGSERSYDLTGLKPGTEYWVNISGVKGGEYSFPLSAIFTT
notes: FN3 domain
With B13 the koff (human CD8A-Fc (in house)) was 0.00779 s⁻¹, the “Cyno T-cell Binding 0.2 uM (MFI)” value [1] was 2800 MFI and the “Cyno T-cell Binding 2 uM (MFI)” value [1] was 47100 MFI. For the same binder, the “Human T-cell Binding 0.2 uM (MFI)” value [2] was 401 MFI and the “Human T-cell Binding 2 uM (MFI)” value [2] was 9890 MFI.

B14: P283FR9P1366_B7 (designed binder)
chain: LPAPKNLVVSRVTEDSARLSWTAPDAAFDSFWITYPEWPVNGEAIVLTVPGSERSYDLTGLKPGTEYWVVIWGVKGGVESPPLSAIFTT
notes: FN3 domain
In the case of B14, the koff (human CD8A-Fc (in house)) is reported as 0.00115 s⁻¹, the “Cyno T-cell Binding 0.2 uM (MFI)” value [1] is reported as 4670 MFI and the “Cyno T-cell Binding 2 uM (MFI)” value [1] is reported as 51200 MFI. The “Human T-cell Binding 0.2 uM (MFI)” value [2] was 899 MFI and the “Human T-cell Binding 2 uM (MFI)” value [2] was 11400 MFI.

B15: P283DR9P1364_G10 (designed binder)
chain: LPAPKNLVVSRVTEDSARLSWTAPDAAFDSFSIAYPEWPGSGEAIVLTVPGSERSYDLTGLKPGTEYFVVIFGVKGGSQSWPLSAIFTT
notes: FN3 domain
B15 was tested, and the koff (human CD8A-Fc (in house)) was 0.00253 s⁻¹, the “Cyno T-cell Binding 0.2 uM (MFI)” value [1] was 769 MFI and the “Cyno T-cell Binding 2 uM (MFI)” value [1] was 10900 MFI. For the same binder, the “Human T-cell Binding 0.2 uM (MFI)” value [2] was 409 MFI and the “Human T-cell Binding 2 uM (MFI)” value [2] was 6290 MFI.

B16: P283FR9P1366_C6 (designed binder)
chain: LPAPKNLVVSRVTEDSARLSWTAPDAAFDSFSIAYPEWPVYGEAIVLTVPGSERSYDLTGLKPGTEYFVVIYGVKGGNYSDPLSAIFTT
notes: FN3 domain
For B16, the koff (human CD8A-Fc (in house)) was 0.00143 s⁻¹, the “Cyno T-cell Binding 0.2 uM (MFI)” value [1] was 1680 MFI and the “Cyno T-cell Binding 2 uM (MFI)” value [1] was 26200 MFI. For the same binder, the “Human T-cell Binding 0.2 uM (MFI)” value [2] was 483 MFI and the “Human T-cell Binding 2 uM (MFI)” value [2] was 4540 MFI.

— patent US20210032312A1 (Janssen / Centocor, published 2021)
